According to PMC4059916, “VARP Is Recruited on to Endosomes by Direct Interaction with Retromer, Where Together They Function in Export to the Cell Surface” (Developmental Cell, 2014):

B1: Rab32 1-225 (Q85L), GTP hydrolysis-defective mutant, GST removed (enzyme, UniProt Q13637 1-225, looked up)
chain: MAGGGAGDPGLGAAAAPAPETREHLFKVLVIGELGVGKTSIIKRYVHQLFSQHYRATIGVDFALKVLNWDSRTLVRLQLWDIAGLERFGNMTRVYYKEAVGAFVVFDISRSSTFEAVLKWKSDLDSKVHLPNGSPIPAVLLANKCDQNKDSSQSPSQVDQFCKEHGFAGWFETSAKDNINIEEAARFLVEKILVNHQSFPNEENDVDKIKLDQETLRAENKSQCC
notes: Rab32, residues 1-225; limits 1-225 are printed for the crystallised construct; also called Rab32(Q85L); Rab32Q85L

How the values were obtained:
Settings in all cases: both partners purified
[1] = molecular target: VPS29, recombinant, as used in ITC (UniProt Q9UBQ0 1-182); test: ITC; recombinant VARP Cys-rich motif fragments and VPS29; who was titrated is not told
[2] = molecular target: T1, VARP fragment, residues 397-650 (human, UniProt Q96NW4 397-650); test: ITC; Nano ITC; VARP constructs at 60 μM in the cell at 4°C, Rab constructs at 300 μM titrated, 24 injections of 2 μl; 50 mM HEPES pH 7.4, 200 mM NaCl, 5 mM MgCl2, 1 mM TCEP
T1 construct: VARP (VPS9-domain ankyrin repeat protein; 1,050 residues), residues 397-650, contains ANKRD1; source: E. coli Rosetta 2 pLysS, purified (GSH-sepharose, PreScission cleavage, Superdex 75)

[3] = molecular target: B1; test: as above
[4] = molecular target: T2, SeMet-Rab32 1-225 (Q85L/V100M/Q153M/V158M/I192M) (UniProt Q13637 1-225, Q85L | V100M | Q153M | V158M | I192M, selenomethionine (SeMet protein)); test: crystal structure; sitting drop vapor diffusion at 18°C, PEG 3350, 200 mM sodium citrate pH 8.0; molecular replacement
T2 construct: Rab32 residues 1-225; also called SeMet-Rab32Q85L; source: E. coli B834, M9 media (seleno-methionine), purified
T2 sequence (looked up): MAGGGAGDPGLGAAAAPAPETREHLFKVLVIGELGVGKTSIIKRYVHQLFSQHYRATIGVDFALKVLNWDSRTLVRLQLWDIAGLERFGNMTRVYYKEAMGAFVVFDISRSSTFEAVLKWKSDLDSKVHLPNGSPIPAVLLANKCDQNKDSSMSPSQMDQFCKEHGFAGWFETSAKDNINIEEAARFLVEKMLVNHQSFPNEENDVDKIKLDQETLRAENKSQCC

T1 sequence (Q96NW4 397-650): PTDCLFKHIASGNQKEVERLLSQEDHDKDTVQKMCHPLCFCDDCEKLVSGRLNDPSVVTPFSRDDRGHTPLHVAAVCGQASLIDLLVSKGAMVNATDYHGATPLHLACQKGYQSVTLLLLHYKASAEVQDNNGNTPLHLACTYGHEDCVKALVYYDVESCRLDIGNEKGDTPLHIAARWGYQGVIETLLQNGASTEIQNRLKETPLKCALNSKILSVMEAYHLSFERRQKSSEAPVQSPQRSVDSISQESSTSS

Row | Binder | Kd [3] | also measured
1 | VARP fragment with the second Cys-rich motif, 4C2 (C711S/C715S/C717S/C720S), as used in ITC (domain or fragment, VARP; source: E. coli, purified) TEEDLEDAEDTVSAADPEFSHPLSQSPKSAPAQKRLAKVPASGLGVNVTSQDGSS |  | fold decrease in binding against the wild-type fragment [1]: ~20 fold
2 | B1 |  | Kd [2]: 7 µM
3 | VARP451-640His6 K546D (domain or fragment, human, UniProt Q96NW4 451-640, looked up, also called VARP(K546D); source: E. coli Rosetta 2 pLysS, purified; not shown: His6, C-terminal, kept) PSVVTPFSRDDRGHTPLHVAAVCGQASLIDLLVSKGAMVNATDYHGATPLHLACQKGYQSVTLLLLHYKASAEVQDNNGNTPLHLACTYGHEDCVDALVYYDVESCRLDIGNEKGDTPLHIAARWGYQGVIETLLQNGASTEIQNRLKETPLKCALNSKILSVMEAYHLSFERRQKSSEAPVQSPQRSVD | ~8 µM | 
4 | VARP451-640His6 (first ankyrin repeat domain, ANKRD1), wild type (domain or fragment, human, UniProt Q96NW4 451-640, looked up, VARP (VPS9-domain ankyrin repeat protein); also called VARP ANKRD1; VARP-ANKR domain 1; source: E. coli Rosetta 2 pLysS, purified (GSH-sepharose, PreScission cleavage, Ni-NTA agarose, Superdex 75); not shown: His6, C-terminal, kept) PSVVTPFSRDDRGHTPLHVAAVCGQASLIDLLVSKGAMVNATDYHGATPLHLACQKGYQSVTLLLLHYKASAEVQDNNGNTPLHLACTYGHEDCVKALVYYDVESCRLDIGNEKGDTPLHIAARWGYQGVIETLLQNGASTEIQNRLKETPLKCALNSKILSVMEAYHLSFERRQKSSEAPVQSPQRSVD | 2.5 µM | binding result [4]: binds
5 | VARP451-640His6 L513D (domain or fragment, human, UniProt Q96NW4 451-640, looked up, source: E. coli Rosetta 2 pLysS, purified; not shown: His6, C-terminal, kept) PSVVTPFSRDDRGHTPLHVAAVCGQASLIDLLVSKGAMVNATDYHGATPLHLACQKGYQSVTDLLLHYKASAEVQDNNGNTPLHLACTYGHEDCVKALVYYDVESCRLDIGNEKGDTPLHIAARWGYQGVIETLLQNGASTEIQNRLKETPLKCALNSKILSVMEAYHLSFERRQKSSEAPVQSPQRSVD | > 300 µM | 
6 | VARP451-640His6 Y550A (domain or fragment, human, UniProt Q96NW4 451-640, looked up, also called VARP(Y550A); source: E. coli Rosetta 2 pLysS, purified; not shown: His6, C-terminal, kept) PSVVTPFSRDDRGHTPLHVAAVCGQASLIDLLVSKGAMVNATDYHGATPLHLACQKGYQSVTLLLLHYKASAEVQDNNGNTPLHLACTYGHEDCVKALVAYDVESCRLDIGNEKGDTPLHIAARWGYQGVIETLLQNGASTEIQNRLKETPLKCALNSKILSVMEAYHLSFERRQKSSEAPVQSPQRSVD | ~22 µM | 
